Assay results reported in patent US20090075340A1 (Novo Nordisk, published 2009).

Biological target: KIR2DL1 expressed on YTS-2DL1 NK cells (human, UniProt P43626 22-348)
Assay: cell-based or functional assay

Chain of KIR2DL1 expressed on YTS-2DL1 NK cells (P43626 other isoform, or with tags, fused parts or gaps limits assumed): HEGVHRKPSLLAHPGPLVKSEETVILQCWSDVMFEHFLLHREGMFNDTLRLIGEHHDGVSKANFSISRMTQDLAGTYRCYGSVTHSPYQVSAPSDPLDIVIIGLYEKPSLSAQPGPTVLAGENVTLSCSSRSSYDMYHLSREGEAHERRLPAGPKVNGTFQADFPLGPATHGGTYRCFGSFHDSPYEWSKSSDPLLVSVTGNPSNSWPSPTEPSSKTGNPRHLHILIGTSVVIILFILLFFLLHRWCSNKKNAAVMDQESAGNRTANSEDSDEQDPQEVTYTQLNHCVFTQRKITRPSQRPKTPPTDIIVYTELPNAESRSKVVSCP

B1: murine IgG1 monoclonal antibody 1-26F117-A3 (antibody, V domains shown)
VH: EVQLQQSGPELVKPGASVKISCKASDYSFTGYFMNWVMQSQEKSLEWIGRINPFNGDAFYNQKFKGKATLTVDKSSNTAHMELRSLTSEDSAVYYCARLDYRGYFFDYWGQGTTLTVSS
VL: DIVMTQSQKFMSTTVGDRVSITCKASQSVGSAVGWYQQKPGQSPKLLIYSASTRYTGVPDRFTGSGSGTDFTLTITNMQSDDLADYFCHQYSRYPLSFGSGTKLEMKR
killing of LCL 721.221-Cw4 cells by YTS-2DL1, fold over killing in the absence of mAb's: 3.7 fold

B2: murine IgG1 monoclonal antibody 1-26F117-A4 (antibody, V domains shown)
VH: QVQLKESGPGLVAPSQSLSITCTVSGFSLTDYGVSWVRQPPGKGLEWLGLIWGDGRTNYHSALISRLSISKDNSKSQVFLKLNSLQIDDTATYYCARRGAMDYWGQGTSVTVSS
VL: B1 VL
killing of LCL 721.221-Cw4 cells by YTS-2DL1, fold over killing in the absence of mAb's: ~2 fold
